Measured values reported in patent US20260043020A1, “BINDING MEMBERS WITH ALTERED DIVERSITY SCAFFOLD DOMAINS” (priority 2016, published 2026).

B1: KB_A01 Fab (Fab, V domains shown)
VH: EVQLVESGGGLVRPGGSLRLSCAASGFTFSSYAMSWVRQAPGKGLEWVSAISGSGGSTYYADSVKGRFTISRDNTKNSLYLQMTSLRADDTAFYYCVKDFGPGYGTGWFDYWGPGTLVTVSS
VL: YLNWYQQKPGKAPKLLIYAAEVCPRILMRCKQDSDCLAGCVCGPNGFCGGTSGVPSRFSGSRSGTEFTLTISSLQPEDFATYYCQKVDDYPLTFGGGTKVEIKR
B2: KB_A06 (scFv, V domains shown)
VH: EVQLVESGGGLVRPGGSLRLSCAASGFTFSSYAMSWVRQAPGKGLEWVSAISGSGGSTYYADSVKGRFTISRDNTKNSLYLQMTSLRADDTAFYYCVKDFGPGYGTGWFDYWGPGTLVTVSS
VL: AVNWYQQLPGKAPKLLIYAAVRCPRILMRCKQDSDCLAGCVCGPNGFCGTPSGIPERFSGSIDRSTNSASLTISGLKTEDEADYYCQSYDSSNLNWVFGGGTKLTVLG
B3: KB_A07 Fab (Fab, V domains shown)
VH: EVQLVESGGGLVRPGGSLRLSCAASGFTFSSYAMSWVRQAPGKGLEWVSAISGSGGSTYYADSVKGRFTISRDNTKNSLYLQMTSLRADDTAFYYCVKDFGPGYGTGWFDYWGPGTLVTVSS
VL: YLNWYQQKPGKAPKLLIYAAGVCPRILMRCKQDSDCLAGCVCGPNGFCGSRSGVPSRFSGSGSGTDFTLTISSLQPEDFATYYCQQGASPPYTFGQGTKVEIKR
B4: KB_A06 Fab (Fab, V domains shown)
VH: EVQLVESGGGLVRPGGSLRLSCAASGFTFSSYAMSWVRQAPGKGLEWVSAISGSGGSTYYADSVKGRFTISRDNTKNSLYLQMTSLRADDTAFYYCVKDFGPGYGTGWFDYWGPGTLVTVSS
VL: AVNWYQQLPGKAPKLLIYAAVRCPRILMRCKQDSDCLAGCVCGPNGFCGTPSGIPERFSGSIDRSTNSASLTISGLKTEDEADYYCQSYDSSNLNWVFGGGTKLTVLG
B5: KB_A10 Fab (Fab, V domains shown)
VH: EVQLVESGGGLVRPGGSLRLSCAASGFTFSSYAMSWVRQAPGKGLEWVSAISGSGGSTYYADSVKGRFTISRDNTKNSLYLQMTSLRADDTAFYYCVKDFGPGYGTGWFDYWGPGTLVTVSS
VL: AVNWYQQLPGKAPKLLIYAAGGCPRILMRCKQDSDCLAGCVCGPNGFCGSNSGVPDRFSGSKSGNTASLTISGLQSEDEADYYCAAWDDSLSGVVFGGGTQLTVLG
B6: KB_C09 Fab (Fab, V domains shown)
VH: EVQLVESGGGLVRPGGSLRLSCAASGFTFSSYAMSWVRQAPGKGLEWVSAISGSGGSTYYADSVKGRFTISRDNTKNSLYLQMTSLRADDTAFYYCVKDFGPGYGTGWFDYWGPGTLVTVSS
VL: AVNWYQQLPGKAPKLLIYAAGRCPRILMRCKQDSDCLAGCVCGPNGFCGGGSGVPDRFSGSIDSSSNSASLTISGLRAEDEADYYCQSYDSSNHWVFGGGTKLTVLG
B7: KB_B01 Fab (Fab, V domains shown)
VH: EVQLVESGGGLVRPGGSLRLSCAASGFTFSSYAMSWVRQAPGKGLEWVSAISGSGGSTYYADSVKGRFTISRDNTKNSLYLQMTSLRADDTAFYYCVKDFGPGYGTGWFDYWGPGTLVTVSS
VL: AVNWYQQLPGKAPKLLIYAAAGCPRILMRCKQDSDCLAGCVCGPNGFCGTRSGVSDRFSGSKSGTSASLAISGLRSEDEADYYCAAWDDSLRAYVFGTGTKLTVLG
B8: KB_C08 Fab (Fab, V domains shown)
VH: EVQLVESGGGLVRPGGSLRLSCAASGFTFSSYAMSWVRQAPGKGLEWVSAISGSGGSTYYADSVKGRFTISRDNTKNSLYLQMTSLRADDTAFYYCVKDFGPGYGTGWFDYWGPGTLVTVSS
VL: AVNWYQQLPGKAPKLLIYAAAVCPRILMRCKQDSDCLAGCVCGPNGFCGTRSGIPERFSGSKSGTSAFLAISGLRSEDEADYYCAAWDDSLSGVVFGGGTKLTVLG
B9: KB_C10 Fab (Fab, V domains shown)
VH: EVQLVESGGGLVRPGGSLRLSCAASGFTFSSYAMSWVRQAPGKGLEWVSAISGSGGSTYYADSVKGRFTISRDNTKNSLYLQMTSLRADDTAFYYCVKDFGPGYGTGWFDYWGPGTLVTVSS
VL: AVNWYQQLPGKAPKLLIYAAGPCPRILMRCKQDSDCLAGCVCGPNGFCGADSGVSDRFSGSKSGTSASLAITGLQAEDEGDYYCAAWDDSLNGLVFGGGTKVTVLG
B10: KB_A02 (scFv, V domains shown)
VH: EVQLVESGGGLVRPGGSLRLSCAASGFTFSSYAMSWVRQAPGKGLEWVSAISGSGGSTYYADSVKGRFTISRDNTKNSLYLQMTSLRADDTAFYYCVKDFGPGYGTGWFDYWGPGTLVTVSS
VL: AVNWYQQLPGKAPKLLIYAAAKCPRILMRCKQDSDCLAGCVCGPNGFCGGASGVSDRFSGSIDSSSNSASLTISGLKPEDEGDYYCQSYDSSNRWVFGGGTKVTVLG
B11: KB_A02 Fab (Fab, V domains shown)
VH: EVQLVESGGGLVRPGGSLRLSCAASGFTFSSYAMSWVRQAPGKGLEWVSAISGSGGSTYYADSVKGRFTISRDNTKNSLYLQMTSLRADDTAFYYCVKDFGPGYGTGWFDYWGPGTLVTVSS
VL: AVNWYQQLPGKAPKLLIYAAAKCPRILMRCKQDSDCLAGCVCGPNGFCGGASGVSDRFSGSIDSSSNSASLTISGLKPEDEGDYYCQSYDSSNRWVFGGGTKVTVLG
B12: KB_B02 Fab (Fab, V domains shown)
VH: EVQLVESGGGLVRPGGSLRLSCAASGFTFSSYAMSWVRQAPGKGLEWVSAISGSGGSTYYADSVKGRFTISRDNTKNSLYLQMTSLRADDTAFYYCVKDFGPGYGTGWFDYWGPGTLVTVSS
VL: AVNWYQQLPGKAPKLLIYAAVGCPRILMRCKQDSDCLAGCVCGPNGFCGTGSGIPERFSGSKSGNTASLTISGLQAEDEGDYYCAAWDDSLSGPVFGGGTKLTVLG
B13: KB_A09 (scFv, V domains shown)
VH: EVQLVESGGGLVRPGGSLRLSCAASGFTFSSYAMSWVRQAPGKGLEWVSAISGSGGSTYYADSVKGRFTISRDNTKNSLYLQMTSLRADDTAFYYCVKDFGPGYGTGWFDYWGPGTLVTVSS
VL: AVNWYQQLPGKAPKLLIYAAERCPRILMRCKQDSDCLAGCVCGPNGFCGTPSGVPDRFSGSIDTFSNSASLTISGLKTEDEADYYCQSYDSSHHWVFGGGTKLTVLG
B14: KB_A05 (scFv, V domains shown)
VH: EVQLVESGGGLVRPGGSLRLSCAASGFTFSSYAMSWVRQAPGKGLEWVSAISGSGGSTYYADSVKGRFTISRDNTKNSLYLQMTSLRADDTAFYYCVKDFGPGYGTGWFDYWGPGTLVTVSS
VL: AVNWYQQLPGKAPKLLIYAADKCPRILMRCKQDSDCLAGCVCGPNGFCGGGSGIPERFSGSKSGTSASLAISGLRSEDEADYYCATWDDNLNGVVFGGGTKLTVLG
B15: KB_A01 (scFv, V domains shown)
VH: EVQLVESGGGLVRPGGSLRLSCAASGFTFSSYAMSWVRQAPGKGLEWVSAISGSGGSTYYADSVKGRFTISRDNTKNSLYLQMTSLRADDTAFYYCVKDFGPGYGTGWFDYWGPGTLVTVSS
VL: YLNWYQQKPGKAPKLLIYAAEVCPRILMRCKQDSDCLAGCVCGPNGFCGGTSGVPSRFSGSRSGTEFTLTISSLQPEDFATYYCQKVDDYPLTFGGGTKVEIKR
B16: KB_C07 Fab (Fab, V domains shown)
VH: EVQLVESGGGLVRPGGSLRLSCAASGFTFSSYAMSWVRQAPGKGLEWVSAISGSGGSTYYADSVKGRFTISRDNTKNSLYLQMTSLRADDTAFYYCVKDFGPGYGTGWFDYWGPGTLVTVSS
VL: AVNWYQQLPGKAPKLLIYAAVGCPRILMRCKQDSDCLAGCVCGPNGFCGSASGVSDRFSGSKSGTSASLAISGLRSEDEADYYCASWDDSLRGYVFGTGTKVTVLG
B17: KB_A09 Fab (Fab, V domains shown)
VH: EVQLVESGGGLVRPGGSLRLSCAASGFTFSSYAMSWVRQAPGKGLEWVSAISGSGGSTYYADSVKGRFTISRDNTKNSLYLQMTSLRADDTAFYYCVKDFGPGYGTGWFDYWGPGTLVTVSS
VL: AVNWYQQLPGKAPKLLIYAAERCPRILMRCKQDSDCLAGCVCGPNGFCGTPSGVPDRFSGSIDTFSNSASLTISGLKTEDEADYYCQSYDSSHHWVFGGGTKLTVLG
B18: KB_A11 Fab (Fab, V domains shown)
VH: EVQLVESGGGLVRPGGSLRLSCAASGFTFSSYAMSWVRQAPGKGLEWVSAISGSGGSTYYADSVKGRFTISRDNTKNSLYLQMTSLRADDTAFYYCVKDFGPGYGTGWFDYWGPGTLVTVSS
VL: YLNWYQQKPGKAPKLLIYAAEICPRILMRCKQDSDCLAGCVCGPNGFCGPSSGIPARFSGSGYGTDFTLTINNIESEDAAYYFCLQHDNFPYTFGQGTKVEIKR
B19: KB_A03 (scFv, V domains shown)
VH: EVQLVESGGGLVRPGGSLRLSCAASGFTFSSYAMSWVRQAPGKGLEWVSAISGSGGSTYYADSVKGRFTISRDNTKNSLYLQMTSLRADDTAFYYCVKDFGPGYGTGWFDYWGPGTLVTVSS
VL: AVNWYQQLPGKAPKLLINAADRCPRILMRCKQDSDCLAGCVCGPNGFCGTNSGVPDRFSGSSSGNTASLTITGAQAEDEADYYCNSRDSSGNNWVFGGGTKVTVLG

Assays:
trypsin [1] = assay: TRF ELISA, Fab on biotinylated trypsin
trypsin [2] = assay: monoclonal phage TRF ELISA
trypsin [3] = assay: phage TRF ELISA; GlyAla (Pro3Gly, Arg4Ala) mutant against the clone

Binder	TRF signal for 0.6 ug/mL Fab (trypsin [1])	TRF signal for 2.4 ug/mL Fab (trypsin [1])	TRF signal for 10 ug/mL Fab (trypsin [1])	trypsin binding signal (FU) (trypsin [2])	% reduction in binding signal (trypsin [3]) [%]
B1	2390	16600	55600		
B2				24400	100
B3	108000	201000	226000		
B4	108000	212000	242000		
B5	14600	71900	68700		
B6	46800	205000	289000		
B7	54800	153000	257000		
B8	51100	131000	183000		
B9	41700	146000	238000		
B10				183000	96
B11	93800	221000	255000		
B12	2340	15900	56600		
B13				57700	100
B14				121000	100
B15				20200	93
B16	153000	247000	276000		
B17	21000	84100	161000		
B18	48900	141000	212000		
B19				28700	90
